These results are taken from paper PMC7924340 (Toxins, 2021).

What all share (test): radioligand binding
Assay [1] concerns the target Acetylcholine binding protein from Aplysia californica (Aplysia californica).
The target of assay [2] is Acetylcholine binding protein from Lymnaea stagnalis (Lymnaea stagnalis) (UniProt P58154).
Assay [3] deals with Muscle-type nAChR from the electric organs of Torpedo californica (Torpedo californica (endogenous in electric organ)).
The target of another assay is human α7 nAChR (human) (UniProt P36544).
Another assay addresses T1, human α7 nAChR (human, UniProt P36544 23-502).
T1 construct: also called hα7 nAChR
The conditions noted are these: one partner purified.

Assay [4] deals with T2, Acetylcholine binding protein from Lymnaea stagnalis (Lymnaea stagnalis, UniProt P58154 20-229).
T2 construct: also called AChBP L. stagnalis; L. stagnalis AChBP
The conditions noted are these: both partners purified.

T1 sequence (P36544 23-502): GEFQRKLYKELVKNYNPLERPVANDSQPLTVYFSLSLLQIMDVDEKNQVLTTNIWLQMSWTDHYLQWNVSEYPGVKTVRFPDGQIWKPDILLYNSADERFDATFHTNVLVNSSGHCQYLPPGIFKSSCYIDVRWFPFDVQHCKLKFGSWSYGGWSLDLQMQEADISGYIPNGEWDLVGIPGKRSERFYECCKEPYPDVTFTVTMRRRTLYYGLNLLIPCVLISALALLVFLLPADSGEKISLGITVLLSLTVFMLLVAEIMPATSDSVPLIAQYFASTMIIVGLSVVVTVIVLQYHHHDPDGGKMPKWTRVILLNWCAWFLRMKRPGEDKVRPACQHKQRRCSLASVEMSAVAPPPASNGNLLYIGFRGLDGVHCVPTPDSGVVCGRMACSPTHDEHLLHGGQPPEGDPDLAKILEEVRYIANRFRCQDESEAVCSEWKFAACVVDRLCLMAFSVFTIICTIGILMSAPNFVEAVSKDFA

In assay [1], “α-bungarotoxin from krait Bungarus multicinctus venom (from UniProt P60615 22-95) (natural protein)” returned a 50% inhibitory concentration (IC50) of 155 nM.
Regarding “Tx-NM3-1 (from UniProt P01388 1-71) (natural protein)”, the IC50 in assay [1] came out at 3200 nM; in assay [2], 203 nM; in assay [3], 1.61 nM; with human α7 nAChR (human), 4.84 nM.

B1: Tx-NM4 (natural protein)
chain: IRCFITPDVTSQICADGHVCYTKTWCDNFCASRGKRVDLGCAATCPTVKPGVNIKCCSTDNCNPFPTRNRP
As to B1, the IC50 amounted to 2350 nM in assay [1], 2.17 nM in assay [3], 26.9 nM with human α7 nAChR and 1160 ± 40 nM in assay [4].

B2: Long type neurotoxin I from cobra N. oxiana (natural protein)
chain: ITCYKTPIPITSETCAPGQNLCYTKTWCDAWCGSRGKVIELGCAATCPTVESYQDIKCCSTDDCNPHPKQKRP
On to B2, for which the results for the IC50 in assay [1] and in assay [4] were 1200 nM and 73.4 ± 1.3 nM, respectively.

B3: α-bungarotoxin from krait Bungarus multicinctus venom (natural protein)
chain: IVCHTTATSPISAVTCPPGENLCYRKMWCDAFCSSRGKVVELGCAATCPSKKPYEEVTCCSTDKCNPHPKQRPG
For B3, the IC50 in assay [4] was 17.2 ± 0.7 nM.
